IntAct's records for PubMed 34075876

B1: Protein TOPLESS (Arabidopsis thaliana (Mouse-ear cress)), Q94AI7 (parent)
chain: MSSLSRELVFLILQFLDEEKFKETVHKLEQESGFFFNMKYFEDEVHNGNWDEVEKYLSGFTKVDDNRYSMKIFFEIRKQKYLEALDKHDRPKAVDILVKDLKVFSTFNEELFKEITQLLTLENFRENEQLSKYGDTKSARAIMLVELKKLIEANPLFRDKLQFPTLRNSRLRTLINQSLNWQHQLCKNPRPNPDIKTLFVDHSCGPPNGARAPSPVNNPLLGGIPKAGGFPPLGAHGPFQPTASPVPTPLAGWMSSPSSVPHPAVSAGAIALGGPSIPAALKHPRTPPTNASLDYPSADSEHVSKRTRPMGISDEVNLGVNMLPMSFSGQAHGHSPAFKAPDDLPKTVARTLSQGSSPMSMDFHPIKQTLLLVGTNVGDIGLWEVGSRERLVQKTFKVWDLSKCSMPLQAALVKEPVVSVNRVIWSPDGSLFGVAYSRHIVQLYSYHGGEDMRQHLEIDAHVGGVNDISFSTPNKQLCVITCGDDKTIKVWDAATGVKRHTFEGHEAPVYSVCPHYKENIQFIFSTALDGKIKAWLYDNMGSRVDYDAPGRWCTTMAYSADGTRLFSCGTSKDGESFIVEWNESEGAVKRTYQGFHKRSLGVVQFDTTKNRYLAAGDDFSIKFWDMDAVQLLTAIDGDGGLQASPRIRFNKEGSLLAVSGNENVIKIMANSDGLRLLHTFENISSESSKPAINSIAAAAAAAATSAGHADRSANVVSIQGMNGDSRNMVDVKPVITEESNDKSKIWKLTEVSEPSQCRSLRLPENLRVAKISRLIFTNSGNAILALASNAIHLLWKWQRNERNATGKATASLPPQQWQPASGILMTNDVAETNPEEAVPCFALSKNDSYVMSASGGKISLFNMMTFKTMATFMPPPPAATFLAFHPQDNNIIAIGMDDSTIQIYNVRVDEVKSKLKGHSKRITGLAFSNVLNVLVSSGADAQLCVWNTDGWEKQRSKVLPLPQGRPNSAPSDTRVQFHQDQAHFLVVHETQLAIYETTKLECMKQWAVRESLAPITHATFSCDSQLVYASFMDATVCVFSSANLRLRCRVNPSAYLPASLSNSNVHPLVIAAHPQEPNMFAVGLSDGGVHIFEPLESEGKWGVAPPAENGSASGAPTAPSVGASASDQPQR
partner: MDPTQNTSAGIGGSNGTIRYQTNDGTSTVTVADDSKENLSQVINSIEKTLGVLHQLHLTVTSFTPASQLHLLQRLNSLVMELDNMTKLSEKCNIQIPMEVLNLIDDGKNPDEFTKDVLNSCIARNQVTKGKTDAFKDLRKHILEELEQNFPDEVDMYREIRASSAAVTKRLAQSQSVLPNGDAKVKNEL
B2: Protein TOPLESS (Arabidopsis thaliana (Mouse-ear cress)), Q94AI7 (parent)
chain: B1 chain
partner: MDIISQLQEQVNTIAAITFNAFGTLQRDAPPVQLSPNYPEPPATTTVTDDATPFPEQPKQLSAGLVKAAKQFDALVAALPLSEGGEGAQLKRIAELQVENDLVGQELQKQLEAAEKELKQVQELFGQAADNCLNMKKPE

Variants of: B1
Conditions: with md10b_arath MED10B

| Variant | effect of a mutation on the interaction |
| --- | --- |
| V145A;E146A;K148A;K149A | decreasing interaction strength |

Variants of: B2
Conditions: with med21_arath MED21, C0LU16

| Variant | effect of a mutation on the interaction |
| --- | --- |
| E146A | decreasing interaction strength |
| K148A | decreasing interaction strength |
| K149A | decreasing interaction strength |
| V145A | decreasing interaction strength |

Variants of: B2
Conditions: with med21_arath MED21, C0LU16
Remark: another data set of the same source

| Variant | effect of a mutation on the interaction |
| --- | --- |
| V145A;E146A;K148A;K149A | disrupting interaction strength |
